{
  "source": "paper PMC12649849",
  "biological_target": "Protein A on the ProA BLI sensor (Staphylococcus aureus) (UniProt P38507)",
  "experiment": "BLI",
  "data": [
    {"substance": "ChromPure mouse IgG (whole molecule) (antibody)", "values": [
      {"measurement": "koff", "result": 0.00121, "unit": "s⁻¹"},
      {"measurement": "kon", "result": 92500, "unit": "M⁻¹ s⁻¹"}
    ]}
  ]
}
